The values below are quoted from earlier work in publication PMC4411291.

One may read the Kd as the constant that tells how readily two partners part at equilibrium.

The target in this series is Calmodulin (UniProt P0DP23).

With “STIM2 C-terminal site (from UniProt Q9P246)”, the Kd was 1 µM.
